# Experimental data published in patent US20210277441A1, “METHOD OF SELECTING A POLYPEPTIDE OF INTEREST” (IMPERIAL COLLEGE INNOVATIONS LIMITED, priority 2018, published 2021).
# Key:
# AL cells = test: 1H NMR analysis of fermentation broth of anaerobic cultures; format: cell-based, Escherichia coli; set-up: Substrate concentration: unit not given here
# [1] = test system: LS1 strain (ΔadhE ΔldhA double mutant) cells; test: Metabolic complementation (anaerobic growth recovery) of LS1/AL strain; format: cell-based, Escherichia coli
# Experimental: (§1) The LS1 mutant strain and the parental BW25113 strain were transformed with the desired plasmid and overnight pre-cultures were grown aerobically in 15 mL Falcon tubes with M9 media (0.4% glucose). These pre-cultures were used to inoculate 10 mL Hungate tubes with M9 medium (0.4% glucose) supplemented with 100 μg/mL ampicillin, 1 mM IPTG and with or without the specific substrate of the dehydrogenase under anaerobic conditions at 37° C. Metabolic complementation was assessed by measuring the optical density at 600 nm every two hours during daytime.
# [2] = test system: triple mutants (adhE, ldhA and one transhydrogenase gene knocked out); test: Metabolic complementation of triple mutants; format: cell-based, E. coli; details: any of the triple mutants
# Excerpt: As LS1 (ΔadhE-ΔldhA double mutant) was able to grow when transformed with an NADPH-dependent oxidoreductase (wild type CBADH), the inventors generated two triple mutants where, in addition to adhE and ldhA, one transhydrogenase gene was deleted in each. Transhydrogenases catalyse the direct transfer of electrons from NADH to NADP+ and from NADPH to NAD+, in the following reaction: NADH+NADP^+=NAD^++NADPH. Without wishing to be bound to any particularly theory, the inventors hypothesized the activity of these transhydrogenases is what makes the system able to restore anaerobic growth when transformed with enzymes that generate NADP+. Two triple mutants, where one transhydrogenase gene was knocked out in addition to adhE and ldhA, were generated, since there are 2 transhydrogenase genes in E. coli: • sthA (soluble transhydrogenase) • pntA (transmembrane transhydrogenase).
# LS5 strain = test: Metabolic complementation (anaerobic growth) of quadruple mutant; format: cell-based, Escherichia coli
# Experimental: as §1
# Since in the triple mutants the non-deleted transhydrogenase could still be supporting anaerobic growth under anaerobic fermentation conditions when complemented with an NADPH-dependent oxidoreductase by generating oxidized NAD, the inventors generated a quadruple mutant where adhE, ldhA, sthA and pntA genes were deleted (LS5 strain, FIG. 11).
# [3] = Enzymatic activity assays with purified enzyme, oxidation of isopropanol; format: biochemical
# LS1 strain cells = test: GC analysis of fermentation broth; format: cell-based, Escherichia coli; details: anaerobic, media supplemented with acetone
# [4] = Enzymatic activity assays with purified enzyme, reduction of acetone; format: biochemical
# [5] = exogenous substrate acetoin, product 2,3-butanediol
# [6] = LS1, medium supplemented with acetoin
# [7] = exogenous substrate 2-methyl-1-pyrroline
# [8] = exogenous substrate 2-nitrobenzoic acid
# [9] = exogenous substrate 4-nitrobenzylic alcohol
# [10] = exogenous substrate acetone, product isopropanol
molecule,measurement,setting,value
"pLS3: pUC19 with sADH NADH-dependent from Klebsiella pneumoniae (budC), acetoin reductase (protein, UniProt Q48436 1-256, looked up, expressed from pUC19 plasmid, pUC19 with sADH NADH-dependent from Klebsiella pneumoniae (budC), acetoin reductase) Diacetyl reductase …: MKKVALVTGAGQGIGKAIALRLVKDGFAVAIADYNDATAKAVASEINQAGGRAMAVKVDVSDRDQVFAAVEQARKTLGGFDVIVNNAGVAPSTPIESITPEIVDKVYNINVKGVIWGIQAAVEAFKKEGHGGKIINACSQAGHVGNPELAVYSSSKFAVRGLTQTAARDLAPLGITVNGYCPGIVKTPMWAEIDRQVSEAAGKPLGYGTAEFAKRITLGRLSEPEDVAACVSYLASPDSDYMTGQSLLIDGGMVFN",Acetate concentration,AL cells; exogenous substrate acetoin,7.9
same,Ethanol concentration,AL cells; exogenous substrate acetoin,0
same,Formate concentration,AL cells; exogenous substrate acetoin,5
same,Lactate concentration,AL cells; exogenous substrate acetoin,0
same,Substrate concentration,AL cells; exogenous substrate acetoin,0.2
same,Succinate concentration,AL cells; exogenous substrate acetoin,0.7
same,Product concentration,AL cells; [5],8.3
same,anaerobic growth recovery,[1]; [6],growth recovery was achieved
"pLS2: pUC19 with sADH NADH-dependent from Bacillus subtilis (bdhA), acetoin reductase (protein, UniProt O34788 1-346, looked up, expressed from pUC19 plasmid, pUC19 with sADH NADH-dependent from Bacillus subtilis (bdhA), acetoin reductase) (R,R)-butanediol dehydrogenase: MKAARWHNQKDIRIEHIEEPKTEPGKVKIKVKWCGICGSDLHEYLGGPIFIPVDKPHPLTNETAPVTMGHEFSGEVVEVGEGVENYKVGDRVVVEPIFATHGHQGAYNLDEQMGFLGLAGGGGGFSEYVSVDEELLFKLPDELSYEQGALVEPSAVALYAVRSSKLKAGDKAAVFGCGPIGLLVIEALKAAGATDIYAVELSPERQQKAEELGAIIVDPSKTDDVVAEIAERTGGGVDVAFEVTGVPVVLRQAIQSTTIAGETVIVSIWEKGAEIHPNDIVIKERTVKGIIGYRDIFPAVLSLMKEGYFSADKLVTKKIVLDDLIEEGFGALIKEKSQVKILVRPN",Acetate concentration,AL cells; exogenous substrate acetoin,6.7
same,Ethanol concentration,AL cells; exogenous substrate acetoin,0
same,Formate concentration,AL cells; exogenous substrate acetoin,3.7
same,Lactate concentration,AL cells; exogenous substrate acetoin,0
same,Substrate concentration,AL cells; exogenous substrate acetoin,0
same,Succinate concentration,AL cells; exogenous substrate acetoin,0.5
same,Product concentration,AL cells; [5],8.4
same,anaerobic growth recovery,[1]; [6],growth recovery was achieved
"Myxococcus stipitatus imine reductase (protein, Myxococcus stipitatus imine reductase) MKPTLTVIGAGRMGSALIKAFLQSGYTTTVWNRTKAKSEPLAKLGAHLADTVRDAVKRSDIIVVNVLDYDTSDQLLRQDEVTRELRGKLLVQLTSGSPALAREQETWARQHGIDYLDGAIMATPDFIGQAECALLYSGSAALFEKHRAVLNVLGGATSHVGEDVGHASALDSALLFQMWGTLFGTLQALAISRAEGIPLEKTTAFIKLTEPVTQGAVADVLTRVQQNRLTADAQTLASLEAHNVAFQHLLALCEERNIHRGVADAMYSVIREAVKAGHGKDDFAILTRFLK",Acetate concentration,AL cells; [7],4.3
same,Ethanol concentration,AL cells; [7],0
same,Formate concentration,AL cells; [7],2.1
same,Lactate concentration,AL cells; [7],0
same,Substrate concentration,AL cells; [7],5.5
same,Succinate concentration,AL cells; [7],1.2
same,Product concentration,"AL cells; exogenous substrate 2-methyl-1-pyrroline, product 2-methylpyrrolidine",6.6
"nsfB nitroreductase from Enterobacter cloacae (protein, listed as Enterobacter cloacae) MDIISVALKRHSTKAFDASKKLTAEEAEKIKTLLQYSPSSTNSQPWHFIVASTEEGKARVAKSAAGTYVFNERKMLDASHVVVFCAKTAMDDAWLERVVDQEEADGRFNTPEAKAANHKGRTYFADMHRVDLKDDDQWMAKQVYLNVGNFLLGVGAMGLDAVPIEGFDAAILDEEFGLKEKGFTSLVVVPVGHHSVEDFNATLPKSRLPLSTIVTEC",Acetate concentration,AL cells; [8],0.7
same,Ethanol concentration,AL cells; [8],0
same,Formate concentration,AL cells; [8],0.4
same,Lactate concentration,AL cells; [8],0
same,Substrate concentration,AL cells; [8],14.1
same,Succinate concentration,AL cells; [8],0
same,Acetate concentration,AL cells; [9],0.8
same,Ethanol concentration,AL cells; [9],0
same,Formate concentration,AL cells; [9],0.4
same,Lactate concentration,AL cells; [9],0
same,Substrate concentration,AL cells; [9],8.28
same,Succinate concentration,AL cells; [9],0
"EntNFSB-s2: nitroreductase variant identified for cells grown with 4-nitrobenzyl alcohol (protein, no acid variant of Enterobacter cloacae nitroreductase, nitroreductase variant identified for cells grown with 4-nitrobenzyl alcohol) MDIISVALKRHSTKAFDASKKLTAEEAEKIKTLLQYSPSSLNSQPWHFIVASTEEGKARVAKSAAGTLVFNERKMLDASHVVVFCAKTAMDDAWLERVVDQEEADGRFNTPEAKAANHKGRTYLADMHRVDLKDDDQWMAKQVYLNVGNFLLGVGAMGLDAVPIEGFDAAILDEEFGLKEKGFTSLVVVPVGHHSVEDFNATLPKSRLPLSTIVTEC",Acetate concentration,AL cells; [9],13.2
same,Ethanol concentration,AL cells; [9],0
same,Formate concentration,AL cells; [9],7.9
same,Lactate concentration,AL cells; [9],0
same,Substrate concentration,AL cells; [9],0
same,Succinate concentration,AL cells; [9],1
"EntNFSB-s1: nitroreductase variant selected for 2-NBA (protein, amino acid variant of Enterobacter cloacae nitroreductase, nitroreductase variant selected for 2-NBA) MDIISVALKRHSTKAFDASKKLTAEEAEKIKTLLQYSPSAINSQPWHFIVASTEEGKARVAKSAAGTYVFNERKMLDASHVVVFCAKTAMDDAWLERVVDQEEADGRFNTPEAKAANHKGRTYAADMHRVDLKDDDQWMAKQVYLNVGNFLLGVGAMGLDAVPIEGFDAAILDEEFGLKEKGFTSLVVVPVGHHSVEDFNATLPKSRLPLSTIVTEC",Acetate concentration,AL cells; [8],4.4
same,Ethanol concentration,AL cells; [8],0
same,Formate concentration,AL cells; [8],2.9
same,Lactate concentration,AL cells; [8],0
same,Substrate concentration,AL cells; [8],12.4
same,Succinate concentration,AL cells; [8],0.3
"Clostridium beijerinckii alcohol dehydrogenase (protein, listed as Clostridium beijerinckii) MKGFAMLGINKLGWIEKERPVAGSYDAIVRPLAVSPCTSDIHTVFEGALGDRKNMILGHEAVGEVVEVGSEVKDFKPGDRVIVPCTTPDWRSLEVQAGFQQHSNGMLAGWKFSNFKDGVFGEYFHVNDADMNLAILPKDMPLENAVMITDMMTTGFHGAELADIQMGSSVVVIGIGAVGLMGIAGAKLRGAGRIIGVGSRPICVEAAKFYGATDILNYKNGHIVDQVMKLTNGKGVDRVIMAGGGSETLSQAVSMVKPGGIISNINYHGSGDALLIPRVEWGCGMAHKTIKGGLCPGGRLRAEMLRDMVVYNRVDLSKLVTHVYHGFDHIEEALLLMKDKPKDLIKAVVIL",anaerobic growth,[2],still able to grow anaerobically
same,anaerobic growth,LS5 strain; media supplemented with acetone or not,anaerobic growth is not restored
same,Acetate concentration,AL cells; exogenous substrate acetone,8.1
same,Ethanol concentration,AL cells; exogenous substrate acetone,0
same,Formate concentration,AL cells; exogenous substrate acetone,5.8
same,Lactate concentration,AL cells; exogenous substrate acetone,0
same,Substrate concentration,AL cells; exogenous substrate acetone,0.1
same,Succinate concentration,AL cells; exogenous substrate acetone,1.1
same,Product concentration,AL cells; [10],10.8
same,time after which growth recovery was observed,"[1]; LS1 cells cultured anaerobically, media supplemented with acetone",55 h
"CBADH-s: CBADH variant with substitutions G198D, S199Y and Y218P, uses NADH instead of NADPH (protein, amino acid variant of CBADH, CBADH variant with substitutions G198D, S199Y and Y218P, uses NADH instead of NADPH) MKGFAMLGINKLGWIEKERPVAGSYDAIVRPLAVSPCTSDIHTVFEGALGDRKNMILGHEAVGEVVEVGSEVKDFKPGDRVIVPCTTPDWRSLEVQAGFQQHSNGMLAGWKFSNFKDGVFGEYFHVNDADMNLAILPKDMPLENAVMITDMMTTGFHGAELADIQMGSSVVVIGIGAVGLMGIAGAKLRGAGRIIGVDYRPICVEAAKFYGATDILNPKNGHIVDQVMKLTNGKGVDRVIMAGGGSETLSQAVSMVKPGGIISNINYHGSGDALLIPRVEWGCGMAHKTIKGGLCPGGRLRAEMLRDMVVYNRVDLSKLVTHVYHGFDHIEEALLLMKDKPKDLIKAVVIL",increase in activity compared to the wild type,"[3]; oxidation of isopropanol to acetone, NAD+ as the cofactor, purified enzyme",io
same,activity with NADP(H) as the cofactor,[3]; oxidation reaction,no significant activity
same,anaerobic growth,LS5 strain; media supplemented with acetone,anaerobic growth is restored
same,Acetate concentration,AL cells; exogenous substrate acetone,13
same,Ethanol concentration,AL cells; exogenous substrate acetone,0
same,Formate concentration,AL cells; exogenous substrate acetone,9.9
same,Lactate concentration,AL cells; exogenous substrate acetone,0
same,Substrate concentration,AL cells; exogenous substrate acetone,0.5
same,Succinate concentration,AL cells; exogenous substrate acetone,1.1
same,Product concentration,AL cells; [10],12.7
same,isopropanol in fermentation broth compared with pLS6,LS1 strain cells,much higher levels
same,anaerobic growth recovery,"[1]; LS1, media supplemented with acetone",allowed growth recovery
same,increase in activity compared to the wild type,"[4]; reduction of acetone to isopropanol, NADH as the cofactor, purified enzyme",4.6 fold
same,activity with NADP(H) as the cofactor,[4]; reduction reaction,no significant activity
